Laboratory results taken from US20130058960A1 (Genentech, published 2013).

T1: TAT425 polypeptide (Homo sapiens (Human), UniProt O15439 1-1325)
T1 construct: no signal peptide or domain limits are stated; also called TAT425 protein; polypeptide encoded by DNA340411
T1 sequence: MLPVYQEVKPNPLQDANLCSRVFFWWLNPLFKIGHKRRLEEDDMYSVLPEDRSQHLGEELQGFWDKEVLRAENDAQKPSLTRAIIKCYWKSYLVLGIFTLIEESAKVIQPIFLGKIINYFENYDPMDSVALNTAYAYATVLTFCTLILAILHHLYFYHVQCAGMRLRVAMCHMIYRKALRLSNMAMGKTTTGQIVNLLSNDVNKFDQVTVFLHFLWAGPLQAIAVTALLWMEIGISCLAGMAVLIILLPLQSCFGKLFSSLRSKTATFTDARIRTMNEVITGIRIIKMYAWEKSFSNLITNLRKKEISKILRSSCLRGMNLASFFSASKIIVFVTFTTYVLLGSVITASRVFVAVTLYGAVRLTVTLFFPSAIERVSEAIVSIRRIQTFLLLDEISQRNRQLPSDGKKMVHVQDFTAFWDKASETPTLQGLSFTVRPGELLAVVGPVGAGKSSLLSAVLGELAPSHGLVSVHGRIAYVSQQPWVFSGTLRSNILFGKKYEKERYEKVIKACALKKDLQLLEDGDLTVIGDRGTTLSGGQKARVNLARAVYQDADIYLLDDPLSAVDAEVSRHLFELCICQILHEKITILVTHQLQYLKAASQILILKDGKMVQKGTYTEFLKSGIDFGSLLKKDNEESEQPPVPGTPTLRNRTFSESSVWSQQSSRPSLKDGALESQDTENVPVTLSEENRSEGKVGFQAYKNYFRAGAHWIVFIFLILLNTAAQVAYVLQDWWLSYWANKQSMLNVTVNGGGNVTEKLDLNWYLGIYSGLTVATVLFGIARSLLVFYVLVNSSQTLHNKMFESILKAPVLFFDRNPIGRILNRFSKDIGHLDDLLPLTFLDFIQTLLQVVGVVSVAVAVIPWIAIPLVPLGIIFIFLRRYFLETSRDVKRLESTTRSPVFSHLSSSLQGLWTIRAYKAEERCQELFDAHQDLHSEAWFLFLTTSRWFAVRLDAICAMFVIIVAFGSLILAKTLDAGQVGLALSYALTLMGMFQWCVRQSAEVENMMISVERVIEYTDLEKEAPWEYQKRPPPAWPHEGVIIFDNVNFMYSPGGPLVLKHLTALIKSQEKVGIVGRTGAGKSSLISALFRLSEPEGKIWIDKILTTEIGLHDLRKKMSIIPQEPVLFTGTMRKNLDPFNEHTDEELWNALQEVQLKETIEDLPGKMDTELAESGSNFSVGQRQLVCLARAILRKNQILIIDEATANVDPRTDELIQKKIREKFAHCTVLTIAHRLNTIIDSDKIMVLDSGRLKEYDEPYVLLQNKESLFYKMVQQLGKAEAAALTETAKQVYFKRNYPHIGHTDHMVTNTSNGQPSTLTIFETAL

B1: anti-TAT425 monoclonal antibody 14E7.17.1 (antibody, V domains shown)
VH: QVQLKESGPGLVAPSQSLSITCTVSGFSLTTYGVSWVRQPPGKGLEWLGLIWGDGSINYHSALISRLSISKDNSKSQVFLKLNSLQTDDTATYYCAKGWGGLYVMDYWGQGTSVTVAS
VL: DIQMTQSPASLSASVGETVTITCRSSENIYSYLAWYQQKLGKSPQLLVYNAKTLAEGVPSRFSGSGSGTQFSLKIYSLQSADFGSYYCQHHFGSPPTFGGGTKLESKR
B2: anti-TAT425 monoclonal antibody 2E4.6.1 (antibody, V domains shown)
VH: EVQLQQSGAELVKPGASVKLSCTTSGFNIKDYYMQWVKQRTGQGLEWIGRIDPEDGETKNAPKFQGKATITADTSSNTAYLQLSSLTSEDTAVYFCAREGYYGNGYAMDYWGQGTSVTVSS
VL: DVLMTQTPLSLPVSLGDQASISCRSSQSIVHSNGNTYLDWYLQKPGQSPKLLIYKVSNRFSGVPDRFSGSGSGTDFTLKISRVEAEDLGVYYCFQGSHVPWTFGGGTKLEIKR
B3: anti-TAT425 monoclonal antibody 13H2.28.2 (antibody, V domains shown)
VH: QVQLQQPGAELVRPGASVKLSCKASGYSFTSYWMNWVRQRPGQGLEWIGMIHPSDSETRLNQKFKDKATLTVDKSSSTAYMQLSSPTSDDSAVYFCTREAITAVHFWGHGTTLTVSS
VL: QAVVTQESALTTSPGETVTLTCRSSTGAVTTSNYANWVQEKPDHLFTGLIGGTNNRAPGVPARFSGSLIGDKAALTITGAQTEDEAIYFCALWYSNHWVFGGGTKLTVLG

What follows are binders tested against T1, TAT425 polypeptide (assay: Western blot, ELISA, FACS and/or immunohistochemistry on cells expressing TAT425).

binding result	Binder
binds	B1
binds	B2
binds	B3
